The target in assay [1] is T1, PEDF-IgG Fc fusion protein (PEDF-Fc) (human, UniProt P36955 20-418).
T1 sequence (looked up): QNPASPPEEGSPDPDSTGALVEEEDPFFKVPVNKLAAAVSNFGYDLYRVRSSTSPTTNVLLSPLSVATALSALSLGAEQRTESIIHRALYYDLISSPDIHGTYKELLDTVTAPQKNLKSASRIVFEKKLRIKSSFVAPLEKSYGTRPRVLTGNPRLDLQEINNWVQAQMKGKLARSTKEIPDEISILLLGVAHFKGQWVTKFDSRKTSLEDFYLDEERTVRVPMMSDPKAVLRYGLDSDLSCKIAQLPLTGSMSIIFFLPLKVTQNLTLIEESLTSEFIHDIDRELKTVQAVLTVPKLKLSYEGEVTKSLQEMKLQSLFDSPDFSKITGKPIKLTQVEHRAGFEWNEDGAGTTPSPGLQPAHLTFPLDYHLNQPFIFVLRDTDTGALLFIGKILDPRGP
Put plainly: peptide or protein array.

For assay [2], the target named is T1, PEDF-IgG Fc fusion protein (PEDF-Fc). The assay can be described thus: colorimetric cell binding assay.

With EKNKRASVRRRIDQSNSHANI [VEGFR-1/Flt-1 amino acid stretch (1), 245-265 (D3), cellulose-bound peptides], in assay [1], the binding result was “binds”.
The same measure, in the same setting: as for YDKAFITVKHRKQQVLETVAGKR [VEGFR-1/Flt-1 amino acid stretch (2), 303-325 (D4), cellulose-bound peptides], the entry is “binds”; as for IRGEHCNKKAVFSRISKFKSTRN, “binds”.
On to AFITVKHRKQQVLETVA [peptide AF10], for which the binding result in assay [2] is on record as “binds”.
The same measure, in the same setting: as for NKRASVRRRIDQSNSHA [peptide AE10], the entry is “binds”.

Values taken from paper PMC11346174 (Investigative Ophthalmology & Visual Science, 2024).
